Test results published in a protein production outcome set (Wang et al. 2014).

Assay: label from the status in PepcDB records

| Sequence | protein production |
| --- | --- |
| MDADHLQRIFDEAVQAHGEGRLDEAEAGFRAVLEVLPHEGEALFGLGLTLMGLRRFSEAIPPLKAAAAEPGAEPVRFLCLAQGLYMTGAFAEAAETFAAVAHQDGFNDGARLTWARSAAYAALDDTDADSALALYGQIAGPVAEDLDTVAREGFSTLVAFERLAAARKLGQWLEARAPDDAIRAHELRVLTDPQIDRAPPAYVEALFDAFAERFDHQLLDNLEYQTPTLLAEMIGVADRRFTHMLDLGCGTGLAGPPLRARVARLTGVDLSTAMLAKAAERGGYDALVHAEAVAFLRETPDRFDLIVAADVFSYLGDLGDILAAAAGALSDDGLLAFSVEQGETWWRLLPSARYAHGDDYVRAAGAGVGLEVIQHRQTPLRRQADAAIPGGLYVLRKIRAA | failed |
| MEEAPQVGDRLHCYWNLVSKDREKVFEAVVTDVETVSFRELRENDELAREDGFRDAKQLEEEFQRMYQGELTDDTEFQVIRFRKLPVDEWEGKRIDEKAMITRRADILFDSGKFSKSELCYTAALRIDPNDVYILNRLGDNLTRLGRFDEALENYRRAIMIEPENPYIWNNMAITLLNAGRVDEALEASERALKIKHDPDLLYWRGVMLEVAGKPLEALESYERSLEIDPRNAEVWTARGNLLSDLGRMEEAIESYNSALELALEDEQDPNVWNRKGNALLELERFNEALECYRRAIEMEPENDVYWTNMGVALLELERFDEALEAFNRALMINPKNEDAGILREECLENL | failed |
| MASHISLKQLKVFTTITQHKTLTAASDSLFLSKAAVSMALSELEKQIGHHLFDRVNNRLILNQEGQKLLPLADELLNRAKDIESIFDGDQALSGQLRIGASDTIGNQVAPYLLSEFRQQTNHRSQSLFISNSAQICDMLTDYELDIALIEGKTLHPELQSTQFSEDEMCVICAPDYPAAHEGPVNLTELENSEWILREAGSGSREFFMRVVAPRLEHWHEAFQLNTTEALINSVSAGLGLGCLSRLSAEPAIRDGRVKLLDMPLDMKRRFWLLVHKEKYQSPLLKTFIEFCQDWERPTNLPLGNKSAK | failed |
| MCHQLSKKTKKALDQELKRKTTLKNNLFSRYLLFRYSLALFFFVNLYWTFPLIYKPSVYVILPVSLLILIVLACAEQFKLYSLQEVYLRNTERVFKTQIVVQILLLIINIFPQQLSVAIPFFSNNMAAHVFLAVFQFLGLFICWYNLKRIKQIKNNEDKFYNRFYNHIEKYI | failed |
| MERGVDNWKVDCKCGTKDDDGERMLACDGCGVWHHTRCIGINNADALPSKFLCFRCIEL | not failed |
| MLFKRPDTETLYFALVNKDPAYEGVAYVCVTSTKIFCRFTCTARKPKIENCRFRETITECLEAGFRPCKRCKPMLSYGTPDGTVTALLTALENEPARRWREEDVVALGHDPSTVRRSFKRRFGMSFLEIARLRRVGDAAESLASGEAVIGAQIDAGYESGSGFRSAINQLFGTSPAAMKGRGFLKGDWIDTPIGPMLAVADDHALHLLEFADRPALPAELKRLKARTGADMVLGRTAVTGQIAAELAAYFAGRSGSFETRLAGHGTPFERDVWRNLREIPAGEIVSYSSLATAMERPTAVRAVARANGANQLAIVVPCHRVLGADGSLTGYGGGLWRKKWLIEHERRMARGLEHHHHHH | not failed |
| MSPSDSSGDSDDPARSRAAVRRTYEDIGDHFSKTREYAWPEVESFVDESGSVGTALDAGCGNGRHAELLAGVADRVVGLDASRALLRAATDRVGDSVALLQGDATRLPLAAGAVDLAVYVATLHHLPSQTARRASLDELARVLAPGARALVSAWSTAHDHFDADPDADEGFDTTVDWTLPGGETVPRFYHIYAPAEFERDVADSDLRLVSMELSSGNCYGVVEPEGKRT | failed |
| MRPSAIVLAGGKEAWAERFGVGSKALVPYRGRPMVEWVLEALYAAGLSPVYVGENPGLVPAPALTLPDRGGLLENLEQALEHVEGRVLVATGDIPHLTEEAVRFVLDKAPEAALVYPIVPKEAVEARFPRTKRTYARLREGTFTGGNLLLLDKSLFRKALPLARRVVALRKRPLALARLVGWDVLLKLLLGRLSLAEVEARAQRILGVEARALVTPYPEVGVDVDREEDLVS | not failed |
| MNGDSKPYPLIVQQVMLFTTHPAHGVKAGMAKALHMIHAGRKVLVFIALLVSASLAMADVAIPPLKARVTDLTGTLSANEATQLEQKLAAFEARKGSQIAVLIVSTTQPETIEQYSIRVVDAWKLGRKGIDDGVLLLVAKQDRTVRVEVGYGLEGVLPDAVAKRITDEIIVPEFRQGRFAAGINAGVDRIIGVIEGEPLPPPPARSARGGDSSAAADILVNNIIFVFILLFIAAKVFQSIFGRFLGATLLSTAAAIIVWLVFASIFLALIAAAFAFFISLFGHAGSGIYRGGRGWPGGFGGYGGWGGRGGPGGFGGGGGFGGGGGGFGGGGASGRW | failed |
| MYVFIEPNDLKDYLITVYDERNRAIRKQTQVYCFYLMIVLFVALFFFFPCLTIRDLVSYKLPLIFAYLYLIIRSLVAKKMEALGKITTNSQKPPFDTSQVLC | failed |
| MLELLYTALLYLIQPLIWIRLWVRGRKAPAYRKRWGERYGFYRRPLKPGGIMLHSVSVGETLAAIPLVRALRHRYPDLPITVTTMTPTGSERVQSAFGNDVQHVYLPYDLPDALNRFLNKIDPKLVLIMETELWPNLIAALHKRHIPLVIANARLSARSAAGYAKLGKFVRTLLRRITLIAAQNEEDGERFVALGAKNNQVTVTGSLKFDISVTPQLAAKAVTLRRQWAPHRPVWIATSTHDGEESIVIAAHQALLHQFPNLLLILVPRHPERFPDAINLVRQAGLSYITRSSGEVPSASTQVVVGDTMGELMLLYGIADLAFVGGSLVERGGHNPLEAAAHAIPVLMGPHTFNFKDICARLDQASGLITITDAATLAKEVSSLLTDADYRNFYGRHAVEVLYQNQGALQRLLQLLEPYLPPKTHLEHHHHHH | failed |
| MNQVHHAAQQGFSQAAELYQHARPNYPQAVVEWLKQDLRLNKYSKVVDLGAGTGKFLPYLKQVTTDIVAVEPVHEMLQQLQTAHPDIKVLQAQSTNIPLESESIDAVLCAQSFHWFANIESLNEIYQLLKPSGHLGLIWNQRDENIDWVKQIADMLMTFEGDTPRYHSGEWKKAFEHQHLFKLEHARVFSHVHTGTVEQVVSQRLLSTSFIAAMPEAQQQQLKQQFEHIVFECTGKQPTDQIDFPYITYAYDFKKI | failed |
| MQCRDHSTHLVSLPNSQGPAVPFTMRRPVRPPSVPMSRYRTAPLATTELPPGIPFIIGNELAERFSYYGMRAILVVFMTRYLVDAAGNPAPMQEGEAKGYFHLFVSLTYFTPFLGALLADGVLGKYRTIIALSLVYCLGHFALALDDTRTGLLLGQSLIALGAGGIKPCVSAHVGDQFGQSNRHLLSQIYGWFYLAINLGAFVSMLLIPWLLERHGASVAFAVPGLLMLIATLVFWAGRHRFVHIPPGGMRFIREAWSSEGRRGVGRLIGVFLFITMFWALFDQTGSSWVLQSQRMDRVLFGHAILPSQIQAANPLLIVLLTPFFHHLLYPALARLIPMTALNKIALGLSFTVLAFALAAWIQMRIDTGLKPSIGWQLLAYLLLTSAEVMVSITSLEFAYTQAPLTMKSFVMALYLGAVALGNLFTALVNFWIERSKTPWLDGAGYFWFFTGLMLATALGFFAYSRNYREELHLQTER | failed |
| MTAVSLGPSPARRDALARRIRLLVTATIGYNVVEAVVAITAGTIASSTALIGFGLDSVIEVSSAAAVAWQFSARDPAVREAREKRTLRIIAFSFFALALYVTVDSVRALTGTGEAGHSVPGIVLAGLSLAIMPFLSAAQRKAGREIGSASAVADSKQTLLCTYLSAVLLVGLLVNLLLGWTWADPVAALVISAIAVKEGRDAWQGRGCCAAPTWATPQAGADTDNCDCCS | failed |
| MTRRLVLMLALLSGSAGASGSFFTLLQTWQGLGHAPIAVSPDGRLLALTRPAPRTPAYAPYDTRIEVRDTAKMRRLYRVPAANGDGKTLLFSPDSRTLWSAHSGTLHYDAWTGKLADNREGSDGAGVSALAFAPGGQSYVLAGVNAVGQTRLVRVGVSPLRSFWPVTRPTAGDGMQPNWTSALAFSPDGRWVASGSVGGGVILRSSVTGRPLRVLADEPGQAPHRARLVDLLFLSPARLLSASADGQVRLWDAATGRALASLPCGERLGAVVQLPGGTRVVAATSRGLQLIETSGGRLRRLETVGGDYADVGVSAAGELWAITRGGTLSHWRLLSR | failed |
| MKAALLDQVARVGKALANGRRLQILDLLAQGERAVEAIATATGMNLTTASANLQALKSGGLVEARREGTRQYYRIAGEDVARLFALVQVVADEHLEHHHHHH | not failed |
| MRRCPLCHSTQTHLLLQDKKRCFYICQTCWLTFADANSHLPPAAEKQRYGRSRIASKQRHLSQFILPLLTQIQQQQNGSLTGLNFGRVLDQTSLETIESAGHTFKQYDPFFAPDHETLKQEYDFICCYRVFEHFQYPIKEWSLLTRLLKPGGWLAISTPLLIDLEGFAKWHYKNNLTHVSFYQRQTFEYLASNSDFELLFAAKDLVLMQKTSLEHHHHHH | not failed |
| METSSSSPVKPRRKDKDEDKFRIGATLAFIVVIIGIGVPMWWRTTTVYRVNLPSTEILSLSKIPIKTAVQVAIYTQQTSRGQLLIAELQNAFSDNEIWSVEFKQLSPTPMTQEAHTPAALEKLLLENHVQSVGDFMFIEWPKLQEELLLTTERSALMRSDTPSNKIAQLLHAKILQTYRINQILSTDERMGAKSEAPQPAYDVIVSVLNPKPRLTHAKWNIAMAVKTYIEPWLAKVSGVSNYTVRSQWKYRVAIEADLKQVRDQSKLGRHYALQETALPHLLTSIAQNLSASTTDKPAINLVVYIPPCHIAPLHIYNSKDQRLTRNDVDAFISPPWGGFIIANPPEHVCLAAMSDQEAVPYHVSTTDNMQVMLDQLHKLLDISSELQMEGVKVVDIEQLEPRRWEYEAYLRRSAIRHISTASSTLQSLIKLLDQISYIVIDDEVGAAITNSYADILAAKAALLEHRLADASVLAKRAFVASERGFFDASLLAQLYFPDEQKYAIYIPLFLPIMVPVLSSFNMLRGVLQARRKEKQS | failed |
| NIILASRSLDKCYAIKESMLKKGLGEIGVEQVDADDTQALVALIQKYKPKVVINVALPYQDLTIMQACLETKTHYIDTANYEHPDLAKFEYKEQWAFDRAYKEVGILGVLGAGFDPGVTNAYVAHAQKHHFDTIHTLDILDCNAGDHKRPFATNFNPEINL | failed |
| MHTFKIDCQLHYRVIQMTEFVFQFEVAEHPWQTLIHESFQFKPDLAFEQYERDAGLNRLIRVNAPEGDLSVSYTAKVQTHIPERNTSLKECEIKDLPSDTLFYLAPSRFCESDLIDTMVTNTFAELPKGYSRVQAICDWIHDNIIYQSGSSDSTTTARDILVNRAGVCRDFAHLGIAICRALNIPARFVFGYMPFYQAQPDFHAIFEVYLENQWMLFDATRMGPIDQFVRVGTGLDAKDVPFATVYGEIELISMSPVIELV | failed |
| APIPERAQVSVPGPVRVVDFDTPQSVALFVQPGIDRDDPDFFTAYILNHIIGGGGFESRLMQEVREKRGLTYGVYSYLLPKDLASIYMGSVASANDKIAEAVNVIRDVWRDVAANGVTAKELEDAKTYLTGAYPLRFDGNGRIANILAGMQIQGLPIDYIATRNDQVNAVTLEEINTFAAGFLDPEGLSFTVVGKPVGL | failed |
| MLITVYCVRRDLSEVTFSLQVSPDFELRNFKVLCEAESRVPVEEIQIIHMERLLIEDHCSLGSYGLKDGDIVVLLQKDNVGPRAPGRAPNQPRVD | failed |
| WLDDGKNGGQLGSVEASAVYRNTQVFGEAAYATEPGALSWICGVQSDLAKGITGVVSMRDYAFEYYSPFAGAFAERGDNASNESGLYLGLKAKVRDNLTLAGLYDRFRFPVLDKRYYVYPSSGYEARFYATWKQNRWMTWDAMYQHKEKEEAKKQFDSNIGTSRYIPVPKITNRVQLGLVVECSPGITLKSRAAFKSLRSHFVTGAESEEGWLLYQQINLKRGPFTLKTRLARFDTDSYDVALYAYEDDLPLVYMLNAYYGRGKAWFIVLDFEPVKNFNLTAKYETTWYDDRDVYSSGNDLRNTSSPGSYHVGCMLKF | failed |
| NPQIREEVALDTQTGANPSAEELADGDIQAVAQAANERTGALFVVITDGLGIRLSHPDEERLGEQVSTSFEAAMRGEETMAWETGTLGASARAKVPIFAPDSSVPVGEVSVGFERDSVYSRLPMFLAA | failed |
